Measurements as given in the supplement of paper PMC10724198.
± gives the standard deviation of the averaged measurements.

Tested on: Saccharomyces cerevisiae
Assay: protein stability index of tFT-peptide fusion (C-terminal peptide) (PSI (0-1 scale)); higher = more stable (slower turnover)
Details: genetic background: wild type; temperature: 30 C
Procedure: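 Multiplexed protein stability (MPS) profiling in S. cerevisiae. Random 12-aa peptides (tFT-X12 library) are fused to the C-terminus of a sfGFP-mCherry tandem fluorescent timer, after mCherry and a GGGS linker. Cells are FACS-sorted into 8 mCherry/sfGFP bins and deep-sequenced. The protein stability index (PSI) is the read-weighted bin average, scaled from 0 (unstable) to 1 (stable). Only peptides with >10 reads are reported; cells were grown at 30 °C in SC-His with glucose.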
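Note: PSI is a weighted mean of sequencing reads over stability bins, variants kept only with over 10 reads, mCherry proximal and sfGFP distal, peptide attached via GGGS linker.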

Sequence | protein stability index
PSPVLLLPPPSL | 0.745 ± 0.059
GRCQSPRASPSG | 0.584 ± 0.013
PHTEPVIVACSG | 0.601 ± 0.033
NLRFTTSCNGPL | 0.649 ± 0.018
NWIIARFVPIGL | 0.685 ± 0.041
IRGWVRCRVARG | 0.683 ± 0.021
SRVCPLLAPSLL | 0.671 ± 0.067
TYFIVGGCGFFG | 0.643 ± 0.06
PPHPSPPTPPPH | 0.687 ± 0.017
LRPPPAAHSLGP | 0.645 ± 0.012
RGGGGGGSRTGA | 0.706 ± 0.026
LPPPRPLPIPSP | 0.711 ± 0.047
ENKIKERPKMRY | 0.658 ± 0.026
LSATGSCSPRRG | 0.693 ± 0.014
FRTPASLSLPLS | 0.676 ± 0.021
HSVEPARSSSAM | 0.669 ± 0.07
RGFCGGLWRPGV | 0.769 ± 0.013
KKSKEKGTRRQR | 0.651 ± 0.073
KKDMCRSSFPDC | 0.686 ± 0.007
FILTSLPSLCFP | 0.696 ± 0.04
SVLPSLRPGSGL | 0.707 ± 0.016
RRLVLPFSRLLR | 0.656 ± 0.019
PPSPSPPAPQAS | 0.632 ± 0.05
LCRCVFFGLWGV | 0.621 ± 0.031
QNKTKRMQKTKA | 0.629 ± 0.047

Sequence | protein stability index
KKRKGKGRDIRG | 0.7025 ± 0.0016
HPHVPAPRVPHP | 0.721 ± 0.047
LPMGGMFVARSI | 0.653 ± 0.059
SSYFCESWMFDL | 0.756 ± 0.023
PLCSPPSPASNL | 0.714 ± 0.067
GSAGGGLLCGCP | 0.657 ± 0.008
LCSLSLCSYSIF | 0.6 ± 0.0053
NVKPGKIRRRRG | 0.667 ± 0.14
GGRRLKDAETWA | 0.615 ± 0.029
VAGAVGSAQFER | 0.649 ± 0.13
PPPNSTPNPLST | 0.7394 ± 0.0058
RYLTLVTNLLCP | 0.647 ± 0.0024
SSFLSLYSIPLP | 0.734 ± 0.044
KKKKKKQKHKKI | 0.718 ± 0.033
SYWARCVHTTIA | 0.669 ± 0.02
FVLSVDLSVEGS | 0.585 ± 0.037
PSPPPGPPPLPP | 0.613 ± 0.011
CVVHLLIFGLCI | 0.5963 ± 0.0046
PPPPPPPPTPAS | 0.654 ± 0.023
GVGAPRLPPRPG | 0.696 ± 0.012
FSPPLGRFLLRH | 0.707 ± 0.062
PRQGTRKYDKMN | 0.724 ± 0.059
QVRPKGDPRARV | 0.644 ± 0.1
PSPHSPPSFLPL | 0.729 ± 0.024
KTSYDQTLEMGL | 0.62 ± 0.04

Sequence | protein stability index
PYVLGRDVVVLF | 0.7 ± 0.06
IAKLLHSPSTFT | 0.688 ± 0.014
SGLRHLLPSGHN | 0.711 ± 0.041
PSFVPHLPRPPP | 0.722 ± 0.071
PPIVHPGSLRSA | 0.673 ± 0.024
ALCHASSLHLQS | 0.724 ± 0.059
GEWGRVGVPGCS | 0.718 ± 0.043
LRALLSHPRRCA | 0.625 ± 0.034
GHAITSALITHR | 0.652 ± 0.024
LGSVVADGPHKL | 0.625 ± 0.0097
TVNIIREEKAGG | 0.68 ± 0.031
GGTGFMHSVDYG | 0.644 ± 0.0089
ACARIGRDYVTP | 0.687 ± 0.016
LPSTQSPPPPLP | 0.705 ± 0.077
GAPLALSVSFPG | 0.648 ± 0.014
GNCPGYSELGRF | 0.6941 ± 0.0044
NACLRNPTTKGG | 0.694 ± 0.086
AWDGVESGRGLE | 0.67797 ± 0.00016
RLIGLLRKTSKK | 0.719 ± 0.089
RRLRCNDCPFVV | 0.755 ± 0.085
PTRPPPTSHTPY | 0.685 ± 0.02
RGISAAAAPGEG | 0.706 ± 0.024
VSDLFWAELIGN | 0.71 ± 5.7e-06
YLEDRGTSGSVQ | 0.676 ± 0.054
AFCKTGSAGVGI | 0.634 ± 0.046

Sequence | protein stability index
GGRGREGRPPGP | 0.641 ± 0.034
PSWVFRCAPSPF | 0.505 ± 0.084
VVVLVGGGWVCV | 0.51 ± 0.035
PHSKADISQIGG | 0.653 ± 0.0072
VGVWTGGDVDCH | 0.777 ± 0.086
GVANSPTVRERT | 0.666 ± 0.018
LSSSVAPLIPPP | 0.767 ± 0.031
PFVSGWEKGRSF | 0.757 ± 0.033
GIGEGRDGFVVV | 0.67 ± 0.058
KKSVDKNKEIKL | 0.681 ± 0.12
VRRSHSGSNDVP | 0.673 ± 0.14
SLPPPSSHPPPL | 0.7 ± 0.09
RACLKSRCIAMG | 0.604 ± 0.065
PVLPPRSFPPSS | 0.697 ± 0.014
NIKEKEIKRQVR | 0.693 ± 0.051
LVLGFDVTPGTF | 0.728 ± 0.017
TSRKNRVKASVP | 0.739 ± 0.039
GGLGVGPGWWGP | 0.733 ± 0.043
RHLMNYEKRNAN | 0.723 ± 0.053
RYPLRPLLLPPP | 0.741 ± 0.16
PPLTPLPLGSPP | 0.717 ± 0.027
SEYPCSDRAEVA | 0.65 ± 0.017
LYSFSIPPSLGS | 0.735 ± 0.085
VGWLCVLGGAQR | 0.762 ± 0.045
NVENSNTAGKGV | 0.689 ± 0.024

Sequence | protein stability index
DVERKKIKIARQ | 0.714 ± 0.047
LPRASPKARTLR | 0.714 ± 0.075
LAFFAPCLLPPL | 0.557 ± 0.048
CLPLSPPVPHLR | 0.738 ± 0.12
VIPLSARGEEGD | 0.7001 ± 0.0035
FVQSMGVGLGWG | 0.694 ± 0.026
WTTWAYFSDPTS | 0.621 ± 0.021
GLRYGLALARPF | 0.65 ± 0.034
PLNALLHSNPDK | 0.711 ± 0.1
PPSPPPTPFPPS | 0.651 ± 0.1
RQSSPPPRIAPT | 0.6783 ± 0.0057
PVVSRPSNFRWV | 0.663 ± 0.02
PLLPPPLFSLLR | 0.681 ± 0.015
GIENTYVVIFID | 0.598 ± 0.068
VALLLGSRFDFT | 0.6627 ± 0.0023
RACWGKSTGGEW | 0.723 ± 0.0083
INGSTENKSVKT | 0.644 ± 0.012
EVEGFLFVFEVK | 0.609 ± 0.015
SWGCSMAKVWVR | 0.585 ± 0.038
ILSDCWDQTIIE | 0.671 ± 0.018
CGWTSPSLVPTC | 0.791 ± 0.045
GAGAHCVSWLSN | 0.695 ± 0.0076
EQRNLELSGHIC | 0.725 ± 0.12
PPLPLSTLFLSA | 0.712 ± 0.041
PRSPPTPPPAPP | 0.66 ± 0.013

Sequence | protein stability index
GRSHIQPCQDII | 0.75 ± 0.078
LLTFSSCALPYR | 0.676 ± 0.092
SIWLPPSRPPPS | 0.766 ± 0.015
TRPIGSPPSPAK | 0.702 ± 0.017
VCGLGGGQWQGV | 0.729 ± 0.028
PPRAPSPSPLPP | 0.893 ± 0.1
VVSSFHYTSRQC | 0.744 ± 0.1
HKSRHSPKPPFT | 0.6677 ± 0.0026
PRAPHHRIPEDL | 0.733 ± 0.097
HLQLCAPISTTD | 0.652 ± 0.07
DFVLSASIGFTR | 0.673 ± 0.035
VKSSSCSVLRSL | 0.7 ± 0.038
CYPIPEGWIGLM | 0.607 ± 0.045
IAPLMSSILYPI | 0.685 ± 0.025
NLSYPSCDPPAT | 0.5836 ± 0.0032
SGRSQHFVSFLR | 0.664 ± 0.018
SYLLPHTRFCFL | 0.674 ± 0.034
RNKNYIDEEKER | 0.661 ± 0.037
FFPQLRPNSSTS | 0.724 ± 0.042
PPRPSTPPRHSL | 0.695 ± 0.058
APKLWLPYTCQS | 0.705 ± 0.059
RRRAINIPNNRL | 0.712 ± 0.016
YAGGLWEGYRHW | 0.636 ± 0.063
LSSWPFLPLVRI | 0.593 ± 0.02
KKKTKQTKVNKK | 0.64 ± 0.072

Sequence | protein stability index
RLHPSFPPPPPQ | 0.704 ± 0.029
PRTHPPPPAPCR | 0.6634 ± 0.0054
PPSLHSRAFTLS | 0.557 ± 0.2
CLSATTFSYVFA | 0.576 ± 0.0061
AVVYRGGRGGIS | 0.775 ± 0.047
PRRARPLALVFH | 0.6 ± 0.033
RICIGSLHGASI | 0.576 ± 0.019
TQSEHRTIPKSG | 0.663 ± 0.0089
GCPHGTLFVSLE | 0.699 ± 0.065
PPVSLGCPPGRP | 0.776 ± 0.099
PPPLPPALSPSH | 0.679 ± 0.07
WSVAVVWDALFG | 0.699 ± 0.04
HPPPPPRSLPLP | 0.692 ± 0.08
PGSADGPATYPL | 0.65 ± 0.03
LPCFPSLNRNPL | 0.7397 ± 0.0015
GLSLSLLSSLFV | 0.71 ± 0.02
CLREYGGRGGWE | 0.706 ± 0.028
SVGGSLFLGRRG | 0.68 ± 0.072
GGGGHMGGRLVK | 0.692 ± 0.039
LLPFTLHIPLRP | 0.6523 ± 0.0022
PGSQPPFVPPPR | 0.604 ± 0.019
WGCFPGVVMGVS | 0.594 ± 0.02
IIFQWVVPTILQ | 0.546 ± 0.019
FPRRPSPGPLIS | 0.678 ± 0.035
GEWRFCLGYRRR | 0.647 ± 0.018

Sequence | protein stability index
ITGSRVQVYIGR | 0.693 ± 0.021
KKIKKKQKKKIQ | 0.664 ± 0.071
AAVRPAHRICYS | 0.733 ± 0.041
HPHPPQSTNPYT | 0.677 ± 0.058
RRRVTVYAPVDS | 0.713 ± 0.015
LPPPPSPLPPRP | 0.627 ± 0.048
NVCICSIRNATN | 0.804 ± 0.11
EGGLDPFRVIMG | 0.643 ± 0.029
VAAFGGGGTNGV | 0.665 ± 0.075
GGRGGEVVLWQA | 0.726 ± 0.12
VIRPMTVYSVVS | 0.515 ± 0.029
PPSAALPTSPTG | 0.6911 ± 0.0015
STGLDPAAGAHL | 0.657 ± 0.06
ATVYFCKVCGGR | 0.687 ± 0.019
RRRGSLGGVRGN | 0.707 ± 0.058
PPPPPPSPHPPS | 0.726 ± 0.024
PHIRPPQCTRPI | 0.737 ± 0.015
LSYQTGTTRTRK | 0.728 ± 0.056
PPPPPPPPPLAF | 0.653 ± 0.12
IKKANRKTKPMK | 0.712 ± 0.078
VYHFPDLFPLGI | 0.7078 ± 0.0027
